Data set [1] addresses T1, LUZ24 gp4 (Mip) (Pseudomonas phage LUZ24) (UniProt A9J6U1).
T1 sequence: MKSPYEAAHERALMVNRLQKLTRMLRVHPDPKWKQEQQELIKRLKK
Briefly: EMSA. A general note: Mobility shift assays separate free from complexed probe on a gel.

Data set [2] concerns the target T2, MvaT-His (Pseudomonas aeruginosa (PAO1?)) (UniProt Q9HW86).
T2 sequence: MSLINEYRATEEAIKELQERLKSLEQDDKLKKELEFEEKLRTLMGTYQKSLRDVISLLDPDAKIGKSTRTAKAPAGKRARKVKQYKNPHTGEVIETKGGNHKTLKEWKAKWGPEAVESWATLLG
Kind of data set: EMSA.

Data set [3] has as its target LUZ24 gp4 (yeast two-hybrid bait) (Pseudomonas aeruginosa phage LUZ24). Briefly: two-hybrid; alpha-galactosidase activity of the yeast two-hybrid pairs, in milliunits per ml per cell, for a relative comparison of interaction strengths.

Turning to “CATGAGGCCAGGACGTTGTTCATGAAAACCGAATAATCGTTTCGAATGATGGTTTGCAATTATTAATGTCGAATGGAATGAATGTGCCATATCTCCATAAATAAAAAGGAAGTTTGTCCAATACTTGAGAAACTACTTTAAGAAGGTTTTGTCGGTAGAAAGCGATCAATC (double strand) [ptxS upstream region 150 bp]”, the binding result in data set [1] is “no binding”; in data set [2], “binds”.

B1: MvaT (PA4315) prey fragment, amino acids 1-80 (domain or fragment)
chain: MSLINEYRATEEAIKELQERLKSLEQDDKLKKELEFEEKLRTLMGTYQKSLRDVISLLDPDAKIGKSTRTAKAPAGKRAR
On to B1, for which, in data set [3], the α-Gal activity (milliunits per ml per cell) turned out to be 23.1.

Source of the values: PMC4635203.
